# Assay results taken from article PMC8092405 (Proceedings of the National Academy of Sciences of the …, 2021).
# B1: human CCL19, unlabeled (ligand)
# chain: GTNDAEDCCLSVTQKPIPGYIVRNFHYLLIKDGCRVPAVVFTTLRGRQLCAPPDQPWVERIIQRLQRTSAKMKRRSS
# B2: human CXCL13, unlabeled (ligand)
# chain: VLEVYYTSLRCRCVQESSVFIPRRFIDRIQILPRGNGCPRKEIIVWKKNKSIVCVDPQAEWIQRMMEVLRKRSSSTLPVPVFKRKIP
# Target: human G protein-coupled receptor 182 (GPR182) (human, UniProt O15218 1-404)
# Sequence (O15218 whole entry): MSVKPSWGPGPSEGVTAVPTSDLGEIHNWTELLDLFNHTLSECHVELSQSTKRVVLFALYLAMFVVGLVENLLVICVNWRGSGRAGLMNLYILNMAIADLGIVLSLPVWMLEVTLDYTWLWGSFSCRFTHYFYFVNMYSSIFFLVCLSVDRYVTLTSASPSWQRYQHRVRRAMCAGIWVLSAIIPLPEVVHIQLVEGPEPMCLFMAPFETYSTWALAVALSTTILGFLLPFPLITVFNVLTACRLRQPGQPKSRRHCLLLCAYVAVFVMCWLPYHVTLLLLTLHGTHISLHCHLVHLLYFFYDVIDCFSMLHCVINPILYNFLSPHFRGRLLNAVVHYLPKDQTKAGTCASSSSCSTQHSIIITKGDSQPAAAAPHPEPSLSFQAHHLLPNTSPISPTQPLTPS
row,Binder,Ki [nM]
1,B1,260
2,B2,9
